Measured values taken from publication PMC9482650, “Quantitative fragmentomics allow affinity mapping of interactomes” (Nature Communications, 2022).

Assays:
Experiment in all cases: holdup assay
Design in all cases: key: below the threshold = too weak to quantify, mostly under pKd 3.1 to 4
[1] = target: T1, APBA1_2, Q02410
T1 sequence (Q02410 742-832, limits assumed, looked up): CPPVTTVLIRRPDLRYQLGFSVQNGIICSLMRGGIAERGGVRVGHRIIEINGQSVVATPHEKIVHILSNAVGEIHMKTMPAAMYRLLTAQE

[2] = target: T2, DFNB31_2, Q9P202
T2 sequence (Q9P202 274-371, limits assumed, looked up): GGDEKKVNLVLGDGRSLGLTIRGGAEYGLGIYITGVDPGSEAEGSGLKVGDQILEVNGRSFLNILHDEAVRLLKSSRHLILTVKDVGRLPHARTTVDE

[3] = target: DLG1_2, Q12959
DLG1_2, Q12959, sequence (Q12959 314-412): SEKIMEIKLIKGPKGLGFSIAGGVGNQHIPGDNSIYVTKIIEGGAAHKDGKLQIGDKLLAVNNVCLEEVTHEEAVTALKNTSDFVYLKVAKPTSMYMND

[4] = target: DLG1_3, Q12959
DLG1_3, Q12959, sequence (Q12959 457-571): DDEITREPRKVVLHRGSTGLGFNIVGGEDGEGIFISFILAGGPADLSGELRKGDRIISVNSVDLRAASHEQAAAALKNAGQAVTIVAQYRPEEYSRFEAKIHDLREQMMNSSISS

[5] = target: T3, DLG3_2, Q92796
T3 sequence (Q92796 221-321, limits assumed, looked up): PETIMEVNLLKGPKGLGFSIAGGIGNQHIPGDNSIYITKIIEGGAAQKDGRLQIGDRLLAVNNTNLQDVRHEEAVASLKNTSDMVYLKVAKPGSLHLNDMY

[6] = target: T4, DLG3_3, Q92796
T4 sequence (Q92796 374-475, limits assumed, looked up): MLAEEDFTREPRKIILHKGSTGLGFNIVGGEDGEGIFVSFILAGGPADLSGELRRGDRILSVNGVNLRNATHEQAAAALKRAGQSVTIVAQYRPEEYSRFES

[7] = target: DLG4_1, P78352
DLG4_1, P78352, sequence (P78352 62-152): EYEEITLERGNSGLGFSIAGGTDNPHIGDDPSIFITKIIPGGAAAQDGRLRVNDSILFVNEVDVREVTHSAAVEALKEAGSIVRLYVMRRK

[8] = target: DLG4_2, P78352
DLG4_2, P78352, sequence (P78352 155-259): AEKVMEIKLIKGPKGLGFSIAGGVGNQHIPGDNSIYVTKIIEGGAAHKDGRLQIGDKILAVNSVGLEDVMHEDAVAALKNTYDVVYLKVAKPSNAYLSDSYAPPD

[9] = target: FRMPD3, Q5JV73
FRMPD3, Q5JV73, sequence (Q5JV73 12-100): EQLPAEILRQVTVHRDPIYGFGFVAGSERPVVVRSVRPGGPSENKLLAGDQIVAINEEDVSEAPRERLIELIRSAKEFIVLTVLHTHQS

[10] = target: GIPC2, Q8TF65
GIPC2, Q8TF65, sequence (Q8TF65 112-203): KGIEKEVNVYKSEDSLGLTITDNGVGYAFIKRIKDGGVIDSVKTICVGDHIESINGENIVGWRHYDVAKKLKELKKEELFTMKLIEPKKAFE

[11] = target: T5, GRIP1_5, Q9Y3R0
T5 sequence (Q9Y3R0 568-668, limits assumed, looked up): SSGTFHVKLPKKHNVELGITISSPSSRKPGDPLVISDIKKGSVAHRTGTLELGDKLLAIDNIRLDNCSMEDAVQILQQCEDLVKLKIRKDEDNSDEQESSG

[12] = target: T6, GRIP1_7, Q9Y3R0
T6 sequence (Q9Y3R0 999-1096, limits assumed, looked up): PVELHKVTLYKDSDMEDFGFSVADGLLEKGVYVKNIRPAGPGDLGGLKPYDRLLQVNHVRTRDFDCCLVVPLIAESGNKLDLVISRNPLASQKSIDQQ

[13] = target: T7, HTRA3, P83110
T7 sequence (P83110 354-453, limits assumed, looked up): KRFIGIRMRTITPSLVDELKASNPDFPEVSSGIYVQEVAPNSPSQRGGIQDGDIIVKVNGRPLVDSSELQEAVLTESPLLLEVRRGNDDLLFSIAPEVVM

[14] = target: Inadl_10, Q8NI35
Inadl_10, Q8NI35, sequence (Q8NI35 1673-1763): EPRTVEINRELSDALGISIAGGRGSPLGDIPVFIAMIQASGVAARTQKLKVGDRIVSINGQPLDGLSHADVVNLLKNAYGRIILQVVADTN

[15] = target: LDB3, O75112
LDB3, O75112, sequence (O75112 1-94): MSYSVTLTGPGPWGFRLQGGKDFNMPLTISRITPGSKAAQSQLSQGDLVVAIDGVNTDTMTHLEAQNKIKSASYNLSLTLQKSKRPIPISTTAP

[16] = target: T8, LIN7C, Q9NUP9
T8 sequence (Q9NUP9 88-185, limits assumed, looked up): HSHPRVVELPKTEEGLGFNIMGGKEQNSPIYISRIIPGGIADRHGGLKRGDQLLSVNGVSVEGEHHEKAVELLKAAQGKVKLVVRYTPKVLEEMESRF

[17] = target: LNX1_2, Q8TBB1
LNX1_2, Q8TBB1, sequence (Q8TBB1 371-470): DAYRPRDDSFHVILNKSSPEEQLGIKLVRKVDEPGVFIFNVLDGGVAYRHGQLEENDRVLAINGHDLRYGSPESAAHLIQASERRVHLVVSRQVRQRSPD

[18] = target: MAGI2_2, Q86UL8
MAGI2_2, Q86UL8, sequence (Q86UL8 410-522): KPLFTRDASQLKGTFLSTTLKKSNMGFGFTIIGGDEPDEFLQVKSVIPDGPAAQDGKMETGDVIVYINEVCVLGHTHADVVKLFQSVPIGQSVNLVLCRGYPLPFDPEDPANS

[19] = target: MAGI2_4, Q86UL8
MAGI2_4, Q86UL8, sequence (Q86UL8 772-865): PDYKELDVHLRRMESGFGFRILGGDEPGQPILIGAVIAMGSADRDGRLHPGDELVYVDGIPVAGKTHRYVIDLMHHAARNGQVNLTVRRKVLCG

[20] = target: MAST1, Q9Y2H9
MAST1, Q9Y2H9, sequence (Q9Y2H9 962-1065): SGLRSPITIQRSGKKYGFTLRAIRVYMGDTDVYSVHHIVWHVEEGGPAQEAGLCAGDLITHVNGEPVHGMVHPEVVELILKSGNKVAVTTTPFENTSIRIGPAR

[21] = target: NHERF2_2, Q15599
NHERF2_2, Q15599, sequence (Q15599 142-238): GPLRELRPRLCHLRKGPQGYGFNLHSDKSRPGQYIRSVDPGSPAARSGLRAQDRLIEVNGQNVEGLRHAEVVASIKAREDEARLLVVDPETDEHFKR

[22] = target: T9, NHERF3_4, Q5T2W1
T9 sequence (Q5T2W1 373-468, limits assumed, looked up): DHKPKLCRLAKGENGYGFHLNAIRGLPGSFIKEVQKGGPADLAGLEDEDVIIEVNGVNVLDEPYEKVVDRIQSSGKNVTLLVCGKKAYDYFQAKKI

[23] = target: NHERF4_2, Q86UT5
NHERF4_2, Q86UT5, sequence (Q86UT5 220-308): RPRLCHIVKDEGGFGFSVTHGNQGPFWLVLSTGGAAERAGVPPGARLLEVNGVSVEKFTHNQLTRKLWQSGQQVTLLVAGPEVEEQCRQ

[24] = target: PDLIM1, O00151
PDLIM1, O00151, sequence (O00151 1-87): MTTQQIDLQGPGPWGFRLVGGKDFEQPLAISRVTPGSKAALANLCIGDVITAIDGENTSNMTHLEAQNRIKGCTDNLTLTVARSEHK

[25] = target: T10, RAPGEF6, Q8TEU7
T10 sequence (Q8TEU7 525-625, limits assumed, looked up): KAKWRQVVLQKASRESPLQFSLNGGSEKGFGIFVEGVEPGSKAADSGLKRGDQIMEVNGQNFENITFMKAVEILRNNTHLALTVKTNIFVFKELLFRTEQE

[26] = target: T11, SNTG2, Q9NY99
T11 sequence (Q9NY99 68-166, limits assumed, looked up): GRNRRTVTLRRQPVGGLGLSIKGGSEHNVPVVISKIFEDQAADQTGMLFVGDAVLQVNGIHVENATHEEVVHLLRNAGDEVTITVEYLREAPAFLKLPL

[27] = target: TJP2_1, Q9UDY2
TJP2_1, Q9UDY2, sequence (Q9UDY2 24-128): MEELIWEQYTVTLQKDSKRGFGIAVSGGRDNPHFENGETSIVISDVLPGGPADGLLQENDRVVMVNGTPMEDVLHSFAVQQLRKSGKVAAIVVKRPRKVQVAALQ

[28] = plain residues with an end cap or a label only (N-terminal biotin on a linker: ttds)
[29] = plain residues with an end cap or a label only (N-terminal biotin on a linker: gsgsgs; C-terminal amide)
[30] = plain residues with an end cap or a label only (N-terminal biotin on a linker: ahx)

PKTPPTDTSV [KIR3DL3, Q8N743]
pKd [1, 28]: 3.74
pKd [2, 28]: below the threshold
pKd [3, 28]: 3.75
pKd [4, 28]: below the threshold
pKd [5, 28]: 4.14
pKd [6, 28]: below the threshold
pKd [7, 28]: 4.04
pKd [8, 28]: 4.22
pKd [9, 28]: below the threshold
pKd [10, 28]: below the threshold
pKd [11, 28]: below the threshold
pKd [12, 28]: below the threshold
pKd [13, 28]: below the threshold
pKd [14, 28]: below the threshold
pKd [15, 28]: below the threshold
pKd [16, 28]: 3.51
pKd [17, 28]: below the threshold
pKd [18, 28]: below the threshold
pKd [19, 28]: below the threshold
pKd [20, 28]: below the threshold
pKd [21, 28]: below the threshold
pKd [22, 28]: below the threshold
pKd [23, 28]: below the threshold
pKd [24, 28]: below the threshold
pKd [25, 28]: below the threshold
pKd [26, 28]: 3.73
pKd [27, 28]: below the threshold

TLSLTDSSVDGIPPYR [AXIN1_int, O15169]
pKd [1, 29]: below the threshold
pKd [2, 29]: below the threshold
pKd [3, 29]: below the threshold
pKd [4, 29]: below the threshold
pKd [5, 29]: 4.08
pKd [6, 29]: below the threshold
pKd [7, 29]: below the threshold
pKd [8, 29]: below the threshold
pKd [9, 29]: below the threshold
pKd [10, 29]: below the threshold
pKd [11, 29]: below the threshold
pKd [12, 29]: below the threshold
pKd [13, 29]: below the threshold
pKd [14, 29]: below the threshold
pKd [15, 29]: below the threshold
pKd [16, 29]: 3.97
pKd [17, 29]: below the threshold
pKd [18, 29]: below the threshold
pKd [19, 29]: below the threshold
pKd [20, 29]: 3.68
pKd [21, 29]: below the threshold
pKd [22, 29]: below the threshold
pKd [23, 29]: below the threshold
pKd [24, 29]: below the threshold
pKd [25, 29]: below the threshold
pKd [26, 29]: below the threshold
pKd [27, 29]: below the threshold

TVASEKESVM [SLC1A5, Q15758]
pKd [1, 28]: below the threshold
pKd [2, 28]: below the threshold
pKd [3, 28]: below the threshold
pKd [4, 28]: 3.55
pKd [5, 28]: 3.55
pKd [6, 28]: 3.66
pKd [7, 28]: 3.56
pKd [8, 28]: below the threshold
pKd [9, 28]: below the threshold
pKd [10, 28]: 3.54
pKd [11, 28]: 3.55
pKd [12, 28]: 3.67
pKd [13, 28]: below the threshold
pKd [14, 28]: below the threshold
pKd [15, 28]: below the threshold
pKd [16, 28]: 3.62
pKd [17, 28]: below the threshold
pKd [18, 28]: below the threshold
pKd [19, 28]: below the threshold
pKd [20, 28]: 4.2
pKd [21, 28]: 3.51
pKd [22, 28]: below the threshold
pKd [23, 28]: below the threshold
pKd [24, 28]: below the threshold
pKd [25, 28]: below the threshold
pKd [26, 28]: 3.75
pKd [27, 28]: below the threshold

IYVPEAQTRL [DLGAP4, Q9Y2H0]
pKd [1, 28]: 3.64
pKd [2, 28]: below the threshold
pKd [3, 28]: below the threshold
pKd [4, 28]: below the threshold
pKd [5, 28]: below the threshold
pKd [6, 28]: below the threshold
pKd [7, 28]: below the threshold
pKd [8, 28]: below the threshold
pKd [9, 28]: below the threshold
pKd [10, 28]: below the threshold
pKd [11, 28]: below the threshold
pKd [12, 28]: 3.77
pKd [13, 28]: below the threshold
pKd [14, 28]: below the threshold
pKd [15, 28]: below the threshold
pKd [16, 28]: below the threshold
pKd [17, 28]: below the threshold
pKd [18, 28]: below the threshold
pKd [19, 28]: below the threshold
pKd [20, 28]: 5.01
pKd [21, 28]: 4.84
pKd [22, 28]: 3.87
pKd [23, 28]: below the threshold
pKd [24, 28]: below the threshold
pKd [25, 28]: below the threshold
pKd [26, 28]: 4.67
pKd [27, 28]: below the threshold

HTHSYIETHV [CNKSR2, Q8WXI2]
pKd [1, 30]: 4.16
pKd [2, 30]: 3.76
pKd [3, 30]: 5.1
pKd [4, 30]: 3.85
pKd [5, 30]: 5.04
pKd [6, 30]: 4.01
pKd [7, 30]: 4.4
pKd [8, 30]: 4.98
pKd [9, 30]: below the threshold
pKd [10, 30]: below the threshold
pKd [11, 30]: below the threshold
pKd [12, 30]: below the threshold
pKd [13, 30]: below the threshold
pKd [14, 30]: below the threshold
pKd [15, 30]: below the threshold
pKd [16, 30]: 3.67
pKd [17, 30]: below the threshold
pKd [18, 30]: 4.37
pKd [19, 30]: below the threshold
pKd [20, 30]: 4.57
pKd [21, 30]: below the threshold
pKd [22, 30]: below the threshold
pKd [23, 30]: below the threshold
pKd [24, 30]: below the threshold
pKd [25, 30]: below the threshold
pKd [26, 30]: 4.67
pKd [27, 30]: 4.46
